Among the data in patent publication US20260151494A1 are RLU values, retold here.

The chains are these.
B1: CD71-binding FN3 domain of SEQ ID NO: 334 (designed binder, not shown: small tags and cut ends)
chain: MSLPAPKNLVVSRVTEDSARLSWTAPDAAFDSFEIAYQELSLWGEAIVLTVPGSERSYDLTGLKPGTEYWVQIGGVKGGIWSSPLVASFTT
B2: CD71-binding FN3 domain of SEQ ID NO: 335 (designed binder, not shown: small tags and cut ends)
chain: MSLPAPKNLVVSRVTEDSARLSWTAPDAAFDSFFIGYLEPQPPGEAIDLYVPGSERSYDLTGLKPGTEYNVTIQGVKGGFPSLPLVATFTT
B3: CD71-binding FN3 domain of SEQ ID NO: 342 (designed binder, not shown: small tags and cut ends)
chain: MSLPAPKNLVVSRVTEDSARLSWTAPDAAFDSFFIGYLEPQPPGEAIVLTVPGSERSYDLTGLKPGTEYNVTIQGVKGGFPSEPLIANFTT
B4: CD71-binding FN3 domain of SEQ ID NO: 341 (designed binder, not shown: small tags and cut ends)
chain: MSLPAPKNLVVSRVTEDSARLSWTAPDAAFDSFFIGYLEPQPPGEAIELYVPGSERSYDLTGLKPGTEYNVTIQGVKGGFPSLPLVAIFTT
B5: CD71-binding FN3 domain of SEQ ID NO: 343 (designed binder, not shown: small tags and cut ends)
chain: MSLPAPKNLVVSRVTEDSARLSWTAPDAAFDSFFIGYLEPQPPGEAIALWVPGSERSYDLTGLKPGTEYNVTIQGVKGGFPSEPLVATFTT
B6: CD71-binding FN3 domain of SEQ ID NO: 337 (designed binder, not shown: small tags and cut ends)
chain: MSLPAPKNLVVSRVTEDSARLSWTAPDAAFDSFFIGYLEPQPPGEAIHLYVPGSERSYDLTGLKPGTEYNVTIQGVKGGFPSIPLIASFTT
B7: CD71-binding FN3 domain of SEQ ID NO: 336 (designed binder, not shown: small tags and cut ends)
chain: MSLPAPKNLVVSRVTEDSARLSWTAPDAAFDSFNIMYHEHYDNGEAIVLTVPGSERSYDLTGLKPGTEYSVVINGVKGGPHSAPLSAIFTT
B8: CD71-binding FN3 domain of SEQ ID NO: 338 (designed binder, not shown: small tags and cut ends)
chain: MSLPAPKNLVVSRVTEDSARLSWTAPDAAFDSFEIGYFENLYLGEAIVLTVPGSERSYDLTGLKPGTEYCVYICGVKGGRDSMPLSAIFTT
B9: CD71-binding FN3 domain of SEQ ID NO: 339 (designed binder, not shown: small tags and cut ends)
chain: MSLPAPKNLVVSRVTEDSARLSWTAPDAAFDSFEIGYWEMSYYGEAIVLTVPGSERSYDLTGLKPGTEYGVSIGGVKGGRWSLPLSAIFTT
B10: CD71-binding FN3 domain of SEQ ID NO: 344 (designed binder, not shown: small tags and cut ends)
chain: MSLPAPKNLFVSRVTEDSARLSWTAPDAAFDSFEIGYWENAYKGEAIVLTVPGSERSYDLTGLKPGTEYWVQIGGVKGGNWSAPLSAIFTT
B11: CD71-binding FN3 domain of SEQ ID NO: 345 (designed binder, not shown: small tags and cut ends)
chain: MSLPAPKNLVVSRVTEDSAHLSWTAPDAAFDSFEIGYFENDYFGEAIVLTVPGSERSYDLTGLKPGTEYVVFIGGVKGGKWSAPLSAIFTT
B12: CD71-binding FN3 domain of SEQ ID NO: 340 (designed binder, not shown: small tags and cut ends)
chain: MSLPAPKNLVVSRVTEDSSRLSWTAPDAAFDSFEIGYFENLYLGEAIVLTVPGSERSYDLTGLKPGTEYWVQIGGVKGGNWSAPLSAIFTT

For this experiment, the target named is human serum albumin (human) (UniProt P02768). As to the kind of experiment: primary ELISA screen, HSA negative control. On the technique in general: In an ELISA, binding on a coated surface is turned into a signal by an enzyme label.
Chain of human serum albumin (human) (P02768 25-609 limits assumed): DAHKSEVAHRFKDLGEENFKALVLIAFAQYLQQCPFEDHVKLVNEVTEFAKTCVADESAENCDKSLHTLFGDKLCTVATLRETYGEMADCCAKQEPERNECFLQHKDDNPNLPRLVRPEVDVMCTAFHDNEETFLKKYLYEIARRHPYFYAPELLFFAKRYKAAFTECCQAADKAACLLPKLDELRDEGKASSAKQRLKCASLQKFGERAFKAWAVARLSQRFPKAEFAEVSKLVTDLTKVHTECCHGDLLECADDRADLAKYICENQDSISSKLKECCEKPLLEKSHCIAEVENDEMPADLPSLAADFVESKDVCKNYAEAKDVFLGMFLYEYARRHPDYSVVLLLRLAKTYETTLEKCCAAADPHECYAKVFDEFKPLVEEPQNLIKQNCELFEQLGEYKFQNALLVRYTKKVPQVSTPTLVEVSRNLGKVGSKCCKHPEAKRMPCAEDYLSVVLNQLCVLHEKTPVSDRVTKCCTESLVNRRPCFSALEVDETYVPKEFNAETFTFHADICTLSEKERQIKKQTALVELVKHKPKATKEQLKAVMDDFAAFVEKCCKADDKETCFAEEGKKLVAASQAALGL
As to B1, the RLU came out at 14400 RLU.

B2 returned an RLU of 57300 RLU.

Take B3: the RLU came out at 425000 RLU.

Consider B4, for which the RLU is 58000 RLU.

B5 returned an RLU of 30400 RLU.

Regarding B6, the RLU was determined as 17200 RLU.

B7 displayed an RLU of 16800 RLU.

With B8, the RLU stood at 40200 RLU.

With B9, the RLU was found to be 7050 RLU.

Consider B10, for which the RLU worked out at 36900 RLU.

Turning to B11, the RLU was 23600 RLU.

Molecule B12 came in with an RLU of 28300 RLU.
